Laboratory results: the DeepSol protein solubility set

assay: soluble on expression in E. coli; label from the status in PepcDB or PDB records

| Sequence | soluble on expression in E. coli |
| --- | --- |
| MKKWKVRSALVALIVLLAGCSSNAQYNSSASGNVGTAWGGDVHSTVQGVSAERAWRDPAEMIVISYSTNVPSGYDRVYSIRINELEYAIRDGNFNSLPITRVYDSSNNEPRYIVHARVGMNYQLYVRNYSRNTNYEIVATVDGLDVLNGKQGSLNNNGYIVNAGDSLAIKGFRKDKHTEAAFQFANVADSYAANSAQGDVRNTGVIGFAAFELQGQAQNALPPCSGQAFPADNNGYAPPPCRK | not soluble |
| MGSDKIHHHHHHMKILRHFLNATDPCMLQQHIRSIKQDEPANLAIAFGNIDAIVHLSQATEITQLATSWVVTSSCIAAFSDIAAEDNQNHLAILQFYDPQGSYGVASKQSSIDSIIEDSQQALTLALNAANRPGELPAFIWCSQSPGLEEGLLAGIRQLVGNNVPVFGGTAADNDVSGHWCMFDGQQTITTGFIIAVLFPSTPINYFFSSGYETTRHTAIVTSASGRKLHTLNHQPAASVYNQWRTMMALPTLANGPVLAQSTFNPLGRVILDNDEQMTLLSHPAFIYGDGTMELFSEVYQGEQLTFMHGNQTLLIQRAQTVTHFATQQLHDLYDSKPLAAIVIFCAGCMLAIKNETSQVRQGVENALGNVPFIGGFTFGEQGRFADGVNRHGNLMISAIIFGHPNE | not soluble |
| MVQHLTAEEIIQYISDAKKSTPIKVYLNGNFEGITYPESFKVFGSEQSKVIFCEADDWKPFYEAYGSQFEDIEIEMDRRNSAIPLKDLTNTNARIEPGAFIREQAIIEDGAVVMMGATINIGAVVGEGTMIDMNATLGGRATTGKNVHVGAGAVLAGVIEPPSASPVIIEDDVLIGANAVILEGVRVGKGAIVAAGAIVTQDVPAGAVVAGTPAKVIKQASEVQDTKKEIVAALRKLND | not soluble |
| MTMPDYDLIAILGPTASGKTPFAAALAAELNTEIISADSRQIYRGMDLGTGKDLEDYTINGRQIPYHLIDIADPGYKYNVFEYQRDFLTAYETIKQKGCLPVLCGGTGLYLESVLKGYRLIPVPENQELRVRLAEKSLEELTAILSSYKTLHNSTDVDTVKRAIRAIEIEEYYAKTPIEEREFPQLNSLIIGVDIDRELRREKITRRLKQRLDDGMVEEVRRLLAEGIQPDDLIYYGLEYKYLTLYAIGKMTYDEMFTGLETAIHQFAKRQMTWFRGMERRGFTIHWVDASLPMEEKINFVKQKLKEFLEHHHHHH | not soluble |
| MNSQELLAIAVDAIDNKKGEDTISLEMKGISDMTDYFVVTHGNNERQVQAIARAVKEVANEQNIEVKRMEGYNEARWILIDLADVVVHVFHKDERNYYNIEKLYQDAPLESYSQVAYLEHHHHHH | not soluble |
| MGSDKIHHHHHHMIPSSMKAMVLKGHGGIDQLMYQDVPVPQPREGEVLVQVTATAKNNTDRKAREGLYPTKKGEMTSFQMGGKPTLTFPRIQGADIVGRIVAVGAGVSEQRIGERGLLDFNIYADNRTDINLTPDYYGHGADGGYAEYVALPSDQFHHIPNPDLADAELASMGMCSYQTAYHMLTSANIQAGERVLVTGASGGVGTALIQLCRIIGAIPYALSQKDKADSLLKLGAEAVLDRTDMDSFVDRVKAETGGKPLDAVMDLVGGDMTDRFIDAMIFDMNARSTYPRLSIAGASGGNISEILWTRIYLYQVQIFGVSHGTREEAEQLMRWIRSGDLKPVLHGAFRLSELHRAEEYFVNRGSNYLGKIVIVPDAQWQEHGQPYEVEAD | not soluble |
| GFIDSHVHLFGGSVELDCLSLYGVKGLDAMRAAIQPYAQANPDDALVFCVMADYDILGTGHTLTRHDLDSILADRPLAMFAPDHHTVWANTAALEATGLLQGGEVDAGSLIVLGEDGLANGELLEPGAYGPILGLTRHGGREMLGLTTGKDPEPPATPDQRARDKDVIARGLAHCAAQGITGLHLMDGNRYQLELLTELEAEGRLLCRCEVPFHMKGTDPVERMTAEAPAMRAAYRGDKVRCNHLKMFIDGVIESGTALMLRPYPGELGANDNTGDEVFTQEHFTACCVEADRLGFQIAVHAIGDAGVRRTIDAFEAARRANGTRDSRHRIEHIEVIHPDDIPRLAELDIVASLQPGHAPRGHVFPPGAVGQYLHPDQIVGAYAWQTIRETGARVVFSTDWPVIPVDVMPSLRAAIAPLDLGPDWPDQSQSLMDTLASYTRDNAWVEFNEDSKGRLKVGMAADIAVLSHDLTALAPDDITQAAAMVTIMDGAVTY | not soluble |
| KKLKKIVNSYINLGFEVTTKRETIQIDDLVPTQATVYEDELYGRAYELKRGLAEPIIVIKTNNNEKYILVDGHHRAVAACLSDIKELEAHVLEIDTDKKMGIEKTAEKQGLKSLSDIKILDEDKMNCSSAYKLKANILEM | not soluble |
| MSLSKKSILLLCCSLCFISATKAVTPVRNVRNSQVNSKAKTERTKPSDSVRYISNMIADRLEFRNKISSEKEVRKAEYENRLAMEALNYPAIDLYGEDSWSEYVNPFVGAGTDVEIPNSYDIDCSSFVMPVEDKQVTSQFGYRRRFGRMHYGIDLSVNRGDTIRAAFDGKVRVRSYEARGYGYYIVLRHPNGLETVYGHMSRQLVDENQIVRAGQPIGLGGSTGRSTGPHLHFETRFMGIPINPSTIIDFDNGVPLRDIYTFKRGSNSRYAKASKTSSRYAKKGKKGRQASSPMTYRIKKGDTLETIAKRHGTSVQKLCATNGIGKSKILTPGKALRIKEGHHHHHH | soluble |
| MSLSYKKIAIITGANSGFGKEFLKLLINEEEITEIWAVARNKARLNQLVDEFGSKVKIFSKDLSKIEEVKEIGTFLSKENVCIKYLINNAGFAKFCSYNDLSIDESINMIDLNISAVVALGLICIPYMQKGSHIMNISSQASFQPLPYQNIYSSTKAFIRNYTRALNVELKSKGINAIAVCPGWMSTNLFKRGIVVAEKGTKNFPGIVSPDVVAKKALKDAKKNKDISVYGINTKSSHLLAKLLPQKMMMKVWLMQQHIKEGHHHHHH | soluble |
| MIRSATKEDGQAIARLVLVILKDMELPILEEVSEEQMIDLLAEATAYPTYRYGYQRILVYEHAGEVAGIAVGYPAEDEKIIDEPLREVFKKHGLAEDVRLFIEEETLPNEWYLDTISVDERFRGMGIGSKLLDALPEVAKASGKQALGLNVDFDNPGARKLYASKGFKDVTTMTISGHLYNHMQKEV | not soluble |
| MAGWRTVVVNTHSKLSYKNNHLIFKDAYKTELIHLSEIDILLLETTDIVLSTMLVKRLVDENVLVIFCDDKRLPTAMLMPFYGRHDSSLQLGKQMSWSETVKSQVWTTIIAQKILNQSCYLGACSYFEKSQSIMDLYHGLENFDPSNREGHAARIYFNTLFGNDFSRDLEHPINAGLDYGYTLLLSMFAREVVVSGCMTQFGLKHANQFNQFNFASDIMEPFRPLVDKIVYENRNQPFPKIKRELFTLFSDTFSYNGKEMYLTNIISDYTKKVVKALNNEGKGVPEFRI | not soluble |
| MGHHHHHHSHMNSRRRKAQFFLGTTNKRAKTVVLHIDGLDDTSRRNLCEEALLKIKGVISFTFQMAVQRCVVRIRSDLKAEALASAIASTKVMKAQQVVKSESGEEMLVPFQDTPVEVEQNTELPDYLPEDESPTKEQDKAVSRVGSHPEGGASWLSTAANFLSRSFYW | not soluble |
| VQTGIDTLLPDYKKQLKGKRIGLITNPAGVNTSLKSSVDILYENPDIKLTALFGPEHGVRGDAQAGDEVGSYIDEKTGVPVYSLYGKTKKPTPEMLKNVDILMFDIQDVGTRFYTYIYTMAYAMEAAKENGIPFMVLDRPNPQGGNHIEGPILEPEYASFVGLYPIPLKHGMTIGELASLFNKEFSIDADLTVVKMKHWKRKMDFDDTRLPFVLPSPNMPTVESTFVYPATGLIEGTNISEGRGTTKPFELIGAPFIKSTELEETLNSLHLPGVTFRAASFTPTFSKHQGTLCHGVQLYVTDRDKFEAVKTGLSVIKTIHDLYPEDFEFLSTGSFDKLAGNGWIRTKIENGTSVENIINSYEKTLQQFSKTRKKYLIY | soluble |
| MEFDKGQTLGNFIDRIRLNGYNTECVFNQSICQDIKNHYKQQCCAMCGVRGNSENTQIEVDHKDGRKDDSRVSDLSTQAFDDFQALCKACNDKKRQICKKCKETGYRFDARKIPGNHYSFYEGEAEYDGCVGCYQYDPIQYRKTCNDRIYNEGYQKGYSDGYQIGYHQKTTL | not soluble |
| SAASKLQAFWNHPAGPKTIHFWAPTFKWGISIANVADFAKPPEMISYPQQVVVACSGVIWARWGMVITPINWNLSSVNAAMAVTGVCQLSRKIRHDYFSDEKSATASLEG | soluble |
| SRPVGPLARRGCCSAPGTPEVPLTRERYPVQRLPFSTVSKQDLAAFERIVPGGVVTDPEALQAPNVDWLRTLRGCSKVLLRPRTSEEVSHILRHCHERNLAVNPQGGNTGMVGGSVPVFDEIILSTARMNRVLSFHSVSGILVCQAGCVLEELSRYVEERDFIMPLDLGAKGSCHIGGNVATNAGGLRFLRYGSLHGTVLGLEVVLADGTVLDCLTSLRKDNTGYDLKQLFIGSEGTLGIITTVSILCPPKPRAVNVAFLGCPGFAEVLQTFSTCKGMLGEILSAFEFMDAVCMQLVGRHLHLASPVQESPFYVLIETSGSNAGHDAEKLGHFLEHALGSGLVTDGTMATDQRKVKMLWALRERITEALSRDGYVYKYDLSLPVERLYDIVTDLRARLGPHAKHVVGYGHLGDGNLHLNVTAEAFSPSLLAALEPHVYEWTAGQQGSVSAEHGVGFRKRDVLGYSKPPGALQLMQQLKALLDPKGILNPYKTLPSQA | soluble |
| MSLTASDQFNSTHSAVDQYAELVLHNGRMYTLDPAQPWADAVAIRQGKLIAVGSLASLASLIGPNTRQHDLDGAFCMPGLHDMHTHPDLALAPRYADDLDVGIEDPTPEQLAAAIHAYADSHPGDGWIYGQYWVRYTFREAGLTPGREWLDSVMPHRPVALLDRMWGTMMVNSKALELAGIDRHTSDPRNGYLERDELTGEPNGLLIDGAYALIHAAMPPTPVSVLRRAYRDGVHFQTSRGVTATKYVHVCENRLQALKELDDAGELTLRVEAAISWQDDIFPVRRRWELLSGERHFYRSARLSANAVKFHFDGTVEPKSSYLLTPWPEESSWRGKLNLTPEHITDMVVDMDKRGLRVIAHCTGDGASDVFLDAVAEARRRNGNSGIRHQCAHSTLLHPGNLKRFQALDVIAEFSPAAWYPTPFASGARSGYGQERLKRIYDFKGVLAAGGIAVFGTDWPVASIDPWLALETMVTRQNPWNQEPDTFGDPISLEQALQVATLNGAHAMGLEHLTGSLEAGKSADLIVLDRDLFAQGARNYIHHTQVQLTFVEGQLVYDRQGTEGHHHHHH | not soluble |
| MGSDKIHHHHHHMIIIELNKRQEHIIQIVKDHGPITGESIAAQLGLTRATLRPDLAILTMAGYLEARPRVGYFYTGKTGGQLLSEAVKKIKVQDYQSRPVVIDKNVSVYDAICTMFLEDVGTLFVVDQSTLLVGVVSRKDLLRASLGKQDLTSLPVNIIMTRMPNIAMCRREDSLYDIAMELIERQIDAMPVVKDTKQGLEVVGRITKTNITRAFVNLVNNE | not soluble |
| MGSDKIHHHHHHMTISYEKFHLKEVINASGKMTILGVSKVSEAVLAAQRFGGEHFFEMSELSVQTGAFLANLLKVEDAQIVSSASAGIAQSVAALIGKGSLYHAYHPYTEKIEQREIVLPKGHNVDYGTPVEVMVAQGGGQVVEAGYANMCSPEHVEMMISEKTAAILYIKSHHTVQKSMLTVAEAAKVAQRHKVPLIVDAAAEEDLFKYTEAGADLVIYSGAKAIEGPSAGLVVGKKEYIDWVRLQGKGIGRAMKIGKDNILGFTQAVEEYLAHGSESGASMQERLKPFVEAINNLSDLTAKIVQDGAGRDIYRASVKVDGRKTAKEVIQALKAESPAIYTREYQANNGIIEFDIRSVNQEEMNKIVQRLQEIMDKKEK | not soluble |
